Reference: the supplement of paper PMC7125110
± gives the standard error. Fewer inactive variants are shown than the library holds.

B1: glmS ribozyme (parent)
chain: AUAAAAGCGCCAGAACUACAGAAAUGUAGUUGACGAGGAGGAGGUUUAUCGAAUUUUCGGCGGAUGCCUCCAAA

What was measured:
Settings in all cases: with glucosamine-6-phosphate
glucosamine-6-phosphate [1] = variants of: B1; assay: self-cleavage kobs at 40 uM GlcN6P; higher = faster cleavage; RNA array
How it was run: (§1)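 Over ~14 h at 37 °C, tiles were imaged as glucosamine-6-phosphate (40 μM to 10 mM) in HEPES/KCl/Mg(OAc)2 buffer flowed across sequenced MiSeq chips. The chips carried barcoded ribozyme variants transcribed in situ by E. coli RNA polymerase and tracked with a hybridised Cy3 probe. After normalisation to baseline and to non-cleaving reference variants, one- or two-exponential decay fits of per-tile medians gave kobs. kcat and KM followed from weighted Michaelis–Menten fits across concentrations.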

glucosamine-6-phosphate [2] = variants of: B1; assay: self-cleavage kobs at 2500 uM GlcN6P; higher = faster cleavage; RNA array
How it was run: as §1

glucosamine-6-phosphate [3] = variants of: B1; assay: self-cleavage kobs at 10000 uM GlcN6P; higher = faster cleavage; RNA array
How it was run: as §1

glucosamine-6-phosphate [4] = variants of: B1; assay: self-cleavage kobs at 160 uM GlcN6P; higher = faster cleavage; RNA array
How it was run: as §1

glucosamine-6-phosphate [5] = variants of: B1; assay: self-cleavage kobs at 640 uM GlcN6P; higher = faster cleavage; RNA array
How it was run: as §1

Variant | self-cleavage kobs at 40 uM GlcN6P (glucosamine-6-phosphate [1]) [s⁻¹] | self-cleavage kobs at 2500 uM GlcN6P (glucosamine-6-phosphate [2]) [s⁻¹] | self-cleavage kobs at 10000 uM GlcN6P (glucosamine-6-phosphate [3]) [s⁻¹] | self-cleavage kobs at 160 uM GlcN6P (glucosamine-6-phosphate [4]) [s⁻¹] | self-cleavage kobs at 640 uM GlcN6P (glucosamine-6-phosphate [5]) [s⁻¹]
AUAAAAGCGCCAGAAUUACAGAAAUGUAGUCGACGGGGAGCAGGUUUAUCGAAUUUUCGGCGGAUGCCUCCAAA | < 1e-05 | < 1e-05 | < 1e-05 |  | 
AUAAAAGCGCCAGAACUACAGAAAUGUAGUUGACGAGGAGGAGCUUUAUCGAAUUUUCGGCGGAUGCGUCCAAA | < 1e-05 | < 1e-05 | < 1e-05 | < 1e-05 | < 1e-05
AUAAAGGCGCCUGAACUACAGAAAUGUAGUUGACGAGGAGGAGGUUUAUCGAAUUUUCGGCGGAGGCCUCCAAA | < 1e-05 |  | 0.000137 ± 4.1e-05 |  | 
AUAAAAGCGCCAGAACUACAGAAAUGUAGUUGACGAGGAGGAGGAUUAUCGAGUGUUCGGCGGAUGCCUCCAAA | 0.00113 ± 0.00021 |  | 0.0551 ± 0.018 |  | 
AUAAAAGCGCCAGAACUACAGAAAUGUAGUUGACGAGGAGGCGCUUUAUCGAAUUUUCGGCGGAUGCCUCCAAA | < 1e-05 |  | < 1e-05 | < 1e-05 | < 1e-05
AUAAAAGCGCCAGAACUACAGAAAUGUAGUUGACGAGGAGGGGGUUUAUCGAAUGUUCGGCGGAUGCCUCCAAA | 0.00175 ± 0.00035 |  | 0.0243 ± 0.0042 |  | 
AUAAAUGGGCCAGAACUACAGAAAUGUAGUUGACGGGGAGGAGGAUUAUCGAAUUUUCGGCGGUUGCCUCCAAA | < 1e-05 |  |  |  | < 1e-05
AUAAAAGGGCCAGAAUUACAGAAAUGUAGUUGACGAGGAGGAGGUUUAUCGAAUUUUCGGCGGAUGCCUCCAAA | < 1e-05 | < 1e-05 | < 1e-05 | < 1e-05 | < 1e-05
AUAAAAGAUCCAGAACUACAGAAAUGUAGUUGACGAGGAGGAGGUUUAUCGAAUUUUCGGCGGAUGCCUCCAAA | < 1e-05 | < 1e-05 | < 1e-05 | < 1e-05 | < 1e-05
AUAAAGGCGCCAGAACUACAGAAAUGUAGUUGACGCGGAGGAGGUUUAUCAAAUUUUCGGCGGAUGCCUCCAAA | < 1e-05 | < 1e-05 | < 1e-05 |  | 
AUAAAAGCGCCAGAACUACAGAAAUGUAGUUGACUAGGAGGAGGUUUAUCGAAUUUUCGGCGGAUCUCUCCAAA | < 1e-05 |  |  |  | 
AUAAAAGCGCAGGAACUACAGAAAUGUAGUUGACGAGGAGGAGGUUUAUCGAAUUUUCGGCGGAAGGCUCCAAA | 0.000126 ± 3e-05 | 0.000105 ± 2.9e-05 | 5.83e-05 ± 1.5e-05 | 0.000766 ± 0.00026 | 0.000193 ± 6.4e-05
AUAAAAGCGCCAGAACUACAGAAAUGUAGUUGACGAGGAGGAGGGUUAUCGAAUUUUCGGCGUCUGCCUCCAAA | < 1e-05 |  |  |  | < 1e-05
